Several values for one entry are separate records, joined by “and”; a condition that tells them apart may be missing. Equal entries are not always repeated. Each block holds one substance with its values, some of them ahead of it.
Assays:
[1] = molecular target: PKC-βI (endogenous, human cell extracts) (human) (UniProt P05771); assay: Western blot Protocol B, IMR-32 extract, no peptide
[2] = molecular target: PKC-βII (endogenous, human cell extracts) (human) (UniProt P05771); assay: as above
[3] = molecular target: PKC-ε (endogenous, human cell extracts) (human) (UniProt Q02156); assay: Western blot Protocol B, IMR-32 extract, Band 1, no peptide
PKC-ε (endogenous, human cell extracts) (human), sequence (Q02156 whole entry): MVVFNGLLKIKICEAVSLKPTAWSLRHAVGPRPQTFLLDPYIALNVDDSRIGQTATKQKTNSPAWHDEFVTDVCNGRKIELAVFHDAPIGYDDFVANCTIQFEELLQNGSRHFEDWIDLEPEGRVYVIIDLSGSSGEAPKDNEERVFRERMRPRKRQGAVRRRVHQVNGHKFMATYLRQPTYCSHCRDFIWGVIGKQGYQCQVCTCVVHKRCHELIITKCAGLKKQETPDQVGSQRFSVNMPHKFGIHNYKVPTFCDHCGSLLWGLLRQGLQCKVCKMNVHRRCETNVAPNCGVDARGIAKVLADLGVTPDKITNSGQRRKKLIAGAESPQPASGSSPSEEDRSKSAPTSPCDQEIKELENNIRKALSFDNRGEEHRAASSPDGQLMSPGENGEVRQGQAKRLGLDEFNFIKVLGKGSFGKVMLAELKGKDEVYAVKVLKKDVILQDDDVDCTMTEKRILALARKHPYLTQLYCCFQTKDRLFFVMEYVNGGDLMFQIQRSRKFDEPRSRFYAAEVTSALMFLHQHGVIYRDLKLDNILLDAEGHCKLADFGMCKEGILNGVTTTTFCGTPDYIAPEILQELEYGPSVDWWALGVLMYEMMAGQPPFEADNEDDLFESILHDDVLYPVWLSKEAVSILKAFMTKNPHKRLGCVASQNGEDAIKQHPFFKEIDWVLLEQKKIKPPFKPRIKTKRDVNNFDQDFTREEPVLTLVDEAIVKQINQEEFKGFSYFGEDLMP

[4] = molecular target: PKC-ε (endogenous, human cell extracts) (human) (UniProt Q02156); assay: Western blot Protocol B, IMR-32 extract, Band 2, no peptide

PKC-βI (endogenous, human cell extracts) (human), sequence (P05771 2-671): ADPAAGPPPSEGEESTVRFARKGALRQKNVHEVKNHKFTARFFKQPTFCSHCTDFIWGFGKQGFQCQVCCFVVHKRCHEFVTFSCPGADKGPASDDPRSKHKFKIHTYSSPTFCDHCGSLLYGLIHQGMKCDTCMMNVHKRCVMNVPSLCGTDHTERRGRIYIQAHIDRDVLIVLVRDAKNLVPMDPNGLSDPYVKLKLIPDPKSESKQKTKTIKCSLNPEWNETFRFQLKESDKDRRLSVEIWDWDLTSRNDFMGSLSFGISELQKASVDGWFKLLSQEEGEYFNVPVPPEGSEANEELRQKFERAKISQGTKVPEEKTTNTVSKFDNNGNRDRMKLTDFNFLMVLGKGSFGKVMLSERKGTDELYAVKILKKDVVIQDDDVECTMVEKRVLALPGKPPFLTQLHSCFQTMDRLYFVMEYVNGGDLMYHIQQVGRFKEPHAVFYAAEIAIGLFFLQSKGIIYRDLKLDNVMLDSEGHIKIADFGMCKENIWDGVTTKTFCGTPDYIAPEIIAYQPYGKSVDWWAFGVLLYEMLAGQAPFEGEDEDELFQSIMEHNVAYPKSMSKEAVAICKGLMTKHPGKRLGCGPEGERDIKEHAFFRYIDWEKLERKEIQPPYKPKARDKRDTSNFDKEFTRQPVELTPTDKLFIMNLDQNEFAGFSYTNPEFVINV
PKC-βII (endogenous, human cell extracts) (human), sequence (P05771 other isoform, or with tags, fused parts or gaps limits assumed): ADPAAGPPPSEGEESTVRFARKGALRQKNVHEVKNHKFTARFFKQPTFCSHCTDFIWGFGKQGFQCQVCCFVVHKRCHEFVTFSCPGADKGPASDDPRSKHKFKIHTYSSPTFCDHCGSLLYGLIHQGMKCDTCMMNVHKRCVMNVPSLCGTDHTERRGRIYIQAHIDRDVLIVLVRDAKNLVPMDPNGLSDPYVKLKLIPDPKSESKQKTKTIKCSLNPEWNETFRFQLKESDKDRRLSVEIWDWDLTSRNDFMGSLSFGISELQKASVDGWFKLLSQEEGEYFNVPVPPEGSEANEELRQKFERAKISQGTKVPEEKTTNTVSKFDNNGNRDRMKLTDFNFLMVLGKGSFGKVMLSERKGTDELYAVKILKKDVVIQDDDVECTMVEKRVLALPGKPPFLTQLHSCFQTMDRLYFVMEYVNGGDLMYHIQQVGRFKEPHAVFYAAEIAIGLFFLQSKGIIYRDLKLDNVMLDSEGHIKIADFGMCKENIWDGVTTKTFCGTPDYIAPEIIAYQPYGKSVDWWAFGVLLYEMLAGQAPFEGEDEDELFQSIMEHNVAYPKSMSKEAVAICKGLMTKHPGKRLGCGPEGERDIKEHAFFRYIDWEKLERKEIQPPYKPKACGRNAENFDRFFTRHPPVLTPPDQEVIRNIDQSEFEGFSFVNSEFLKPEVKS

band intensity [1]: 170
Substance: anti-PKC βI antibody (Cat. No. SC-209, Santa Cruz Biotechnology, Inc.)

band intensity [2]: 98.6
Substance: anti-PKC βII antibody (Cat. No. SC-210, Santa Cruz Biotechnology, Inc.)

band intensity [3]: 421 and 420 and 323
band intensity [4]: 261 and 281 and 286
Substance: anti-PKC ε antibody (Cat. No. SC-214, Santa Cruz Biotechnology, Inc.)
